Publication PMC12386978

Target: K151Q/R mutants
Experiment: split reporter (BiFC, NanoBiT); split-luciferase complementation; HEK293T cells co-transfected with NLuc-mCRY1 (wild-type or mutant) and a CLuc fusion of the partner; bioluminescence read 24 h after transfection in DMEM with 100 uM D-luciferin

Chain of CLuc-BMAL1 (Q9WTL8 whole entry): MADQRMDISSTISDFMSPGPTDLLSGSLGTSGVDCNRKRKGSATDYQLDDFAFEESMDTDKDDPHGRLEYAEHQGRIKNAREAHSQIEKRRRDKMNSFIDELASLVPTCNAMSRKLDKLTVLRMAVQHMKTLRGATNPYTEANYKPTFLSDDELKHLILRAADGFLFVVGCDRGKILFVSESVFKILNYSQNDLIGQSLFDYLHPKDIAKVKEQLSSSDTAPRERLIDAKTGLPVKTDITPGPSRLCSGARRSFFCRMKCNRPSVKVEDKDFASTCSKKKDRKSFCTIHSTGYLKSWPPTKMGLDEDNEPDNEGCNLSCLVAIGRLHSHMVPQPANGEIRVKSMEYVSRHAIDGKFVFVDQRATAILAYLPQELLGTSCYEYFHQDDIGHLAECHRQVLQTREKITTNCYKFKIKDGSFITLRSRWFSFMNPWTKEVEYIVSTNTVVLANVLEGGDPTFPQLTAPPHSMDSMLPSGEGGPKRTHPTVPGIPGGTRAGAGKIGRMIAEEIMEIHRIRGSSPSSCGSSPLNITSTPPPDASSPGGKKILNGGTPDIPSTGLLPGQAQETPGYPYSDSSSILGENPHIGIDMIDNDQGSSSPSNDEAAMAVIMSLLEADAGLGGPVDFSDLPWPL

binding rate, percent of the wild type (% of the wild type): 50 to 60
Substance: CLuc-BMAL1 (from UniProt Q9WTL8 1-632) (natural protein)
